{"source": "patent US20090291081A1", "about": "(AbbVie / Abbott, published 2009)", "assay_in_all_cases": "cell-based or functional assay", "key": {"human IL-1β": {"target": "human IL-1β (human, UniProt P01584 117-269)"}, "human IL-1α [1]": {"target": "T1, human IL-1α (human, UniProt P01583 113-271)", "T1 sequence (looked up)": "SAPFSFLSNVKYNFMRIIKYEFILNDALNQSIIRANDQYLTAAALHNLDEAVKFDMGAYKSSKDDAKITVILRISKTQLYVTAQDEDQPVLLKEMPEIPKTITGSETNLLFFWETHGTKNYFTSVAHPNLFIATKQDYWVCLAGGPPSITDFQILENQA"}, "human IL-1α [2]": {"target": "T1, human IL-1α", "remark": "listed apart in the source"}}}
{"binder": "Fab ABT1-122/ABT2-65 (Fab, V domains shown) VH: EVQLLESGGGLVQPGGSLRLSCAASGFTFEDYQMGWVRQAPGKGLEWVSSISAMGNRTYYADSVKGRFTISRDDSKNTLYLQMNSLRAEDTAVYYCAKNLVRTQSKMWMFDYWGQGTLVTVSS VL: DIQMTQSPSSLSASVGDRVTITCRASQPIWTELNWYQQKPGKAPKLLIYGSSSLQSGVPRFSGSGSGTDFTLTISSLQPEDFATYYCQQFAYFPATFGQGTKVEIKR", "values": [{"measurement": "Fab IL-1β ND10", "setting": "human IL-1β", "value": 1500, "unit": "nM"}, {"measurement": "Fab IL-1α ND10", "setting": "human IL-1α [1]", "value": 40, "unit": "nM"}]}
{"binder": "ABT1-95-A3 (other) VL: DIQMTQSPSSLSASVGDRVTITCRASKPGVRNMRWYQQKPGKAPKLLIYSVSYLEPGVPSRFSGSGSGTDFTLTISSLQPEDFATYHCLQGYRWPPTFGQGTKVEIKR", "values": [{"measurement": "MRC5 ND50", "setting": "human IL-1α [2]", "value": 11, "unit": "pM"}]}
{"binder": "ABT1-95-A6 (other) VL: DIQMTQSPSSLSASVGDRVTITCRASKPGVRNMRWYQQKPGKAPKLLIYAKSYLEPGVPSRFSGSGSGTDFTLTISSLQPEDFATYHCKQGYRWPVQFGQGTKVEIKR", "values": [{"measurement": "MRC5 ND50", "setting": "human IL-1α [2]", "value": 24, "unit": "pM"}]}
{"binder": "ABT1-95-A5 (other) VL: DIQMTQSPSSLSASVGDRVTITCRASRTPVRNLRWYQQKPGKAPKLLIYSRSFLEPGVPSRFSGSGSGTDFTLTISSLQPEDFATYHCLQGYRWPPTFGQGTKVEIKR", "values": [{"measurement": "MRC5 ND50", "setting": "human IL-1α [2]", "value": 16, "unit": "pM"}]}
{"binder": "ABT1-95-181 (other) VL: DIQMTQSPSSLSASVGDRVTITCRASKPIVRNMRWYQQKPGKAPKLLIYSVSYLEPGVPSRFSGSGSGTDFTLTISSLQPEDFATYHCLQGYRWPPTFGQGTKVEIKR", "values": [{"measurement": "MRC5 ND50", "setting": "human IL-1α [2]", "value": 14, "unit": "pM"}]}
{"binder": "Fab ABT1-96/ABT2-46 (Fab, V domains shown) VH: EVQLLESGGGLVQPGGSLRLSCAASGFTFNQYNMFWVRQAPGKGLEWVSVISGSGRFTYADSVKGRFTISRDNSKNTLYLQMNSLRAEDTAVYYCAKGWWRRDPPFDYWGQGTLVTVSS VL: DIQMTQSPSSLSASVGDRVTITCRASQSIIEWLSWYQQKPGKAPKLLIYRTSVLQSGVPSRFSGSGSGTDFTLTISSLQPEDFATYYCQQNEFWPFTFGQGTKVEIKR", "values": [{"measurement": "Fab IL-1β ND10", "setting": "human IL-1β", "value": 400, "unit": "nM"}, {"measurement": "Fab IL-1α ND10", "setting": "human IL-1α [1]", "value": 6, "unit": "nM"}]}
{"binder": "Fab ABT1-98/ABT2-76 (Fab, V domains shown) VH: EVQLLESGGGLVQPGGSLRLSCAASGFTFDGYIMSWVRQAPGKGLEWVSTISPLGSVTYYADSVKGRFTISRDNSKNTLYLQMNSLRAEDTAVYYCAKKGPWFDYWGQGTLVTVSS VL: DIQMTQSPSSLSASVGDRVTITCRASQSIDRWLAWYQQKPGKAPKLLIYRGSILQSGVPSRFSGSGSGTDFTLTISSLQPEDFATYYCQQVAFWPPTFGQGTKVEIKR", "values": [{"measurement": "Fab IL-1β ND10", "setting": "human IL-1β", "value": 1500, "unit": "nM"}, {"measurement": "Fab IL-1α ND10", "setting": "human IL-1α [1]", "value": 100, "unit": "nM"}]}
{"binder": "Fab ABT1-95/ABT2-13 (Fab, V domains shown) VH: EVQLLESGGGLVQPGGSLRLSCAASGFTFRDYVMYWARQAPGKGLEWVSRIDPMGSSTYYADSVKGRFTISRDNSKNTLYLQMNSLRAEDTAVYYCAKPEGNFDYWGQGTLVTVSS VL: DIQMTQSPSSLSASVGDRVTITCRASQPIHGNLRWYQQKPGKAPKLLIYNISNLQSGVPSRFSGSGSGTDFTLTISSLQPEDFATYYCQQGYRWPVTFGQGTKVEIKR", "values": [{"measurement": "Fab IL-1β ND10", "setting": "human IL-1β", "value": 400, "unit": "nM"}, {"measurement": "Fab IL-1α ND10", "setting": "human IL-1α [1]", "value": 200, "unit": "nM"}]}
{"binder": "Fab ABT1-6-23/ABT2-13 (Fab, V domains shown) V domain 1: EVQLLESGGGLVQPGGSLRLSCAASGFTFVRYDMAWVRQAPGKGLEWVSSIYKSGALTSYDSVKGRFTISRDNSKNTLYLQMNSLRAEDTAVYYCAKGWASFDYWGQGTLVTVSS V domain 2: EVQLLESGGGLVQPGGSLRLSCAASGFTFRDYVMYWARQAPGKGLEWVSRIDPMGSSTYYADSVKGRFTISRDNSKNTLYLQMNSLRAEDTAVYYCAKPEGNFDYWGQGTLVTVSS", "values": [{"measurement": "Fab IL-1β ND10", "setting": "human IL-1β", "value": "> 500", "unit": "nM"}, {"measurement": "Fab IL-1α ND10", "setting": "human IL-1α [1]", "value": 40, "unit": "nM"}]}
